Measured values taken from US20240100133A1 (SAINT LOUIS UNIVERSITY, published 2024).

Assays:
[1] = target: T1, Cluster of Differentiation 14 (CD14), human, endogenous in primary human monocytes (human, UniProt P08571 20-345); test: co-immunoprecipitation with anti-GzmA from lysates of GzmA-treated human monocytes, western blot for CD14
T1 construct: whole, on cells; also called CD14 receptor
T1 sequence (looked up): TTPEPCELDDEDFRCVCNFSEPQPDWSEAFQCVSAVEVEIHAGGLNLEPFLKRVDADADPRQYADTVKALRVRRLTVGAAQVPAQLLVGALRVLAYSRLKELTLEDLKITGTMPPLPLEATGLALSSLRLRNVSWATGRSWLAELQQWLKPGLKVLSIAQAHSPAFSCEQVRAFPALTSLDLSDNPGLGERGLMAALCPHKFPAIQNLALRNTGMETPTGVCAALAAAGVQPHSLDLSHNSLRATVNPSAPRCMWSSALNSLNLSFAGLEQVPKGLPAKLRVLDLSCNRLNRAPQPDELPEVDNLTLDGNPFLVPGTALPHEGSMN

[2] = target: T2, Toll-like Receptor 4 (TLR4), human, endogenous in primary human monocytes (human, UniProt O00206 24-839); test: co-immunoprecipitation with anti-GzmA from lysates of GzmA-treated human monocytes, western blot for TLR4
T2 construct: whole, on cells
T2 sequence (O00206 24-839): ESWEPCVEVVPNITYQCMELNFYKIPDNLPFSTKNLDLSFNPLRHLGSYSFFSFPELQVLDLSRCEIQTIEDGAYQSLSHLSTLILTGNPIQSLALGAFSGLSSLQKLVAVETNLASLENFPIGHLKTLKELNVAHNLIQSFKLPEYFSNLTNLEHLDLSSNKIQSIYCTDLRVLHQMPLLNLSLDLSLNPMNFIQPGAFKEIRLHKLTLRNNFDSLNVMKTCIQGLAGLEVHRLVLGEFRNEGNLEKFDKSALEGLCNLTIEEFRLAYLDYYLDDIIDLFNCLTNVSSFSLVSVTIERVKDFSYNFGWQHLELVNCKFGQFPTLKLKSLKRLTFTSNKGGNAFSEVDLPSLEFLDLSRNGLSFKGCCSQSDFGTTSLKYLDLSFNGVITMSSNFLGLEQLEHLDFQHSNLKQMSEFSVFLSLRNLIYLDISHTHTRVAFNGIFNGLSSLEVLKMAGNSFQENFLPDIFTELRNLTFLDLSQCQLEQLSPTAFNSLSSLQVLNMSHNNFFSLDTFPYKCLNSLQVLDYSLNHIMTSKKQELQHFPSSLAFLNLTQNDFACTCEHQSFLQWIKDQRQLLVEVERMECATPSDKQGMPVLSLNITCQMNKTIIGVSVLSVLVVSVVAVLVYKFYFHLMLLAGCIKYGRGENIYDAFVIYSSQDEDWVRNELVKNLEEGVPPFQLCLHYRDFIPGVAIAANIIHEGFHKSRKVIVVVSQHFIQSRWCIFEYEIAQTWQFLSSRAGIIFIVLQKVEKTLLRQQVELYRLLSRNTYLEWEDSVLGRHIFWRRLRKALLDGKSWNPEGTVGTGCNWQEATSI

binding result [1]: no binding
binding result [2]: no binding
B1: Monomeric Granzyme A C93S, recombinant human, His-tagged (GzmA-C93S) (enzyme)
chain: IIGGNEVTPHSRPYMVLLSLDRKTICAGALIAKDWVLTAAHCNLNKRSQVILGAHSITREEPTKQIMLVKKEFPYPSYDPATREGDLKLLQLMEKAKINKYVTILHLPKKGDDVKPGTMCQVAGWGRTHNSASWSDTLREVNITIIDRKVCNDRNHYNFNPVIGMNMVCAGSLRGGRDSCNGDSGSPLLCEGVFRGVTSFGLENKCGDPRGPGVYILLSKKHLNWIIMTIKGAV
notes: Forms only monomers; also called monomeric GzmA; GzmA-monomer; not shown: His tag
